# Source: article PMC6155552, “Arabidopsis thaliana alcohol dehydrogenase is differently affected by several redox modifications” (PLoS ONE, 2018)
# T1: ADH (recombinant A. thaliana alcohol dehydrogenase, ADH1, At1g77120) (Arabidopsis thaliana, UniProt P06525)
# T1 construct: tag removal not mentioned
# T1 sequence (P06525 1-379): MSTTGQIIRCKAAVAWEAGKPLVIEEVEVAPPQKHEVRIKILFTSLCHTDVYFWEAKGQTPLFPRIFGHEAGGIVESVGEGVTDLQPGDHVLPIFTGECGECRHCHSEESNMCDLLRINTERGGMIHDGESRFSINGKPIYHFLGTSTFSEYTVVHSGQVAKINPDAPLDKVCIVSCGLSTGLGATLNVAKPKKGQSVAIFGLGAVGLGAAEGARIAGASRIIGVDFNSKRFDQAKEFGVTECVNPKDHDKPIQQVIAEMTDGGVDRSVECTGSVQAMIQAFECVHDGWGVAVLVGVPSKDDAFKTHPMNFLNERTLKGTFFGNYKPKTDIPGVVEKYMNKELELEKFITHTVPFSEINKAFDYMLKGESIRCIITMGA
# Columns and labels:
# [1] = target: T1, ADH (recombinant A. thaliana alcohol dehydrogenase, ADH1, At1g77120); assay: protection of activity against inactivation by H2O2 or DEA/NO; type: biochemical; conditions: 0.02-0.2 mM NADH; 0.5 mM H2O2 or DEA/NO; 100 mM Tris-Cl pH 7.5; room temperature
# [2] = substrate: NC(=O)c1ccc[n+]([C@@H]2O[C@H](COP(=O)(O)OP(=O)(O)OC[C@H]3O[C@@H](n4cnc5c(N)ncnc54)[C@H](O)[C@@H]3O)[C@@H](O)[C@H]2O)c1; assay: microplate ADH activity assay, non-linear regression; type: biochemical, Arabidopsis thaliana; conditions: ethanol-to-acetaldehyde direction; NAD+ varied 0-0.8 mM; 5 mM DTT
# Excerpt: microplate ADH activity assay, non-linear regression on ADH (recombinant A. thaliana alcohol dehydrogenase, ADH1, At1g77120)
Molecule,protection of activity against inactivation by H2O2 or DEA/NO [1],Km [2] [µM],kcat [2] [s⁻¹],kcat/Km [2] [M⁻¹ s⁻¹]
NC(=O)C1=CN([C@@H]2O[C@H](COP(=O)(O)OP(=O)(O)OC[C@H]3O[C@@H](n4cnc5c(N)ncnc54)[C@H](O)[C@@H]3O)[C@@H](O)[C@H]2O)C=CC1 [NADH],presence of NADH allows the enzyme to keep a significantly higher activity level,,,
"ADH (recombinant A. thaliana alcohol dehydrogenase, ADH1, At1g77120) (Arabidopsis thaliana) (protein, tag removal not mentioned) MSTTGQIIRCKAAVAWEAGKPLVIEEVEVAPPQKHEVRIKILFTSLCHTDVYFWEAKGQTPLFPRIFGHEAGGIVESVGEGVTDLQPGDHVLPIFTGECGECRHCHSEESNMCDLLRINTERGGMIHDGESRFSINGKPIYHFLGTSTFSEYTVVHSGQVAKINPDAPLDKVCIVSCGLSTGLGATLNVAKPKKGQSVAIFGLGAVGLGAAEGARIAGASRIIGVDFNSKRFDQAKEFGVTECVNPKDHDKPIQQVIAEMTDGGVDRSVECTGSVQAMIQAFECVHDGWGVAVLVGVPSKDDAFKTHPMNFLNERTLKGTFFGNYKPKTDIPGVVEKYMNKELELEKFITHTVPFSEINKAFDYMLKGESIRCIITMGA",,166 ± 17,31.5 ± 2.7,191000 ± 8000
"ADH (recombinant A. thaliana alcohol dehydrogenase, ADH1, At1g77120) (Arabidopsis thaliana; C243S) (protein, tag removal not mentioned) MSTTGQIIRCKAAVAWEAGKPLVIEEVEVAPPQKHEVRIKILFTSLCHTDVYFWEAKGQTPLFPRIFGHEAGGIVESVGEGVTDLQPGDHVLPIFTGECGECRHCHSEESNMCDLLRINTERGGMIHDGESRFSINGKPIYHFLGTSTFSEYTVVHSGQVAKINPDAPLDKVCIVSCGLSTGLGATLNVAKPKKGQSVAIFGLGAVGLGAAEGARIAGASRIIGVDFNSKRFDQAKEFGVTESVNPKDHDKPIQQVIAEMTDGGVDRSVECTGSVQAMIQAFECVHDGWGVAVLVGVPSKDDAFKTHPMNFLNERTLKGTFFGNYKPKTDIPGVVEKYMNKELELEKFITHTVPFSEINKAFDYMLKGESIRCIITMGA",,251 ± 17,52.1 ± 3,208000 ± 5000
